Reference: patent publication US20240343803A1 (SHANDONG SIMCERE BIOPHARMACEUTICAL, published 2024)
Residue numbers refer to the chain shown, from its start. Each block holds one binder with its values, some of them ahead of it.

Key:
[1] = biological target: T1, full-length cynomolgus monkey TIGIT on CHO-K1 cells (CHO-K1 cynomolgus monkey TIGIT) (cynomolgus monkey); assay: FACS
T1 construct: NCBI XP_015300911.1; also called cynomolgus monkey TIGIT cells
Description: (§1) The collected cells were washed once with PBS (Hyclone, CAT #SH30256), resuspended to 2×10⁵/50 μL with 1% BSA-PBS. The antibodies were diluted to 80 nM with 1% BSA-PBS (diluted by 3-fold serial dilution for 12 concentration points). The 50 μL cells were then mixed with 50 μL diluted antibodies, and then incubated at 4° C. for 60 minutes. […] After washing twice with PBS, the cell samples were resuspended with 1% BSA-PBS, 100 μL/well and then analyzed by flow cytometry (BD, Canto II). […] [0298] (c) The effect of anti-TIGIT chimeric antibodies blocking the interaction between Bio-CD155-His and CHO-K1 human TIGIT high expression cell strains detected by FACS

[2] = biological target: T2, human TIGIT ECD-mFc (fusion protein of extracellular domain of human TIGIT and mouse IgG2a Fc fragment) (human); assay: ELISA
T2 chain: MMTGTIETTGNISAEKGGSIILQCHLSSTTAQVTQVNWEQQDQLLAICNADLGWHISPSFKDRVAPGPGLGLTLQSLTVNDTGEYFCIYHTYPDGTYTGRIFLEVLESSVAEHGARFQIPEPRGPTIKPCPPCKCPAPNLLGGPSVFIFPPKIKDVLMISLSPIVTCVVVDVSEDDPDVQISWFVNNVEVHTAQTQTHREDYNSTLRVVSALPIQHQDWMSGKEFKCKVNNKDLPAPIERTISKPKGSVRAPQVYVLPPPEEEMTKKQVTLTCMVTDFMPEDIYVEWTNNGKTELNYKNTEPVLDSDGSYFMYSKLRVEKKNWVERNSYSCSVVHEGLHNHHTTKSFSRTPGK
Description: (§2) After discarding the coating solution, the plate was added with 5% skim milk powder (Sangon Biotech, CAT #A600669-0250)-PBS, 250 μL/well, and incubated at 37° C. for 2-4 hours. […] The enzyme-labeled plate was then washed with 0.05% Tween 20-PBS for 3 times on the Microplate Washer, added with tested antibodies diluted to 13 nM with 1% BSA (diluted by 3-fold serial dilution for 12 concentration points), 50 μL/well, and incubated at 37° C. for 1.5-2 hours. The plate was washed with 0.05% Tween 20-PBS for 3 times on the Microplate Washer, then added with HRP enzyme-labeled antibodies (Merck, CAT #AP113P) diluted with 1% BSA (Sangon Biotech, CAT #A500023-0100)-PBS at a dilution ratio of 1:5000, 50 μL/well, and incubated at 37° C. for 1 hour. After washing 3 times with 0.05% Tween 20-PBS on the Microplate Washer, the plate was added with TMB chromogenic solution (KPL, CAT #52-00-03), 50 μL/well, and incubated at room temperature for 7-10 minutes. 1M HCL, 50 μL/well, was then added into the plate to terminate the reaction, and the OD450 nm was read by a microplate reader (Biotek, Powerwave HT). […] (b) The binding activity of anti-TIGIT chimeric antibodies to CHO-K1 human TIGIT (cells with high, medium and low expression levels) and CHO-KI cynomolgus monkey TIGIT detected by FACS.

[3] = biological target: T3, cynomolgus monkey TIGIT ECD-mFc (extracellular domain of cynomolgus monkey TIGIT and mouse IgG2a Fc fragment) (cynomolgus monkey); assay: ELISA
T3 construct: entry includes the signal peptide, limits not readable here
Description: as §2

[4] = biological target: T4, human TIGIT ECD-his (fusion protein of extracellular domain of human TIGIT and His-tag) (human); assay: BIAcore kinetics
T4 construct: entry includes the signal peptide, limits not readable here
T4 chain: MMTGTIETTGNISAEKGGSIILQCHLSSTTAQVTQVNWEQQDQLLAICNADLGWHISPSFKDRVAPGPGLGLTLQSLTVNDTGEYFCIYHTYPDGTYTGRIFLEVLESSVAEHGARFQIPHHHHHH

[5] = biological target: T5, full-length human TIGIT on CHO-K1 cells (CHO-K1 human TIGIT) (human, UniProt Q495A1 22-244); assay: FACS, low expression strain
T5 construct: NCBI XP_024309156.1; entry includes the signal peptide; also called high expression strain 1D2; medium expression strain 2D10
T5 sequence: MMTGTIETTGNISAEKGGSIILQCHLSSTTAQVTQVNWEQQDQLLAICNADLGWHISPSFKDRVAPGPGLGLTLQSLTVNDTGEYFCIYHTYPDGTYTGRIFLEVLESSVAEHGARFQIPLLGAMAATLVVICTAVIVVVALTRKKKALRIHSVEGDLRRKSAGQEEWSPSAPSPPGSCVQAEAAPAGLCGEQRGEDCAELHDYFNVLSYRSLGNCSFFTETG
Description: as §1

[6] = biological target: T5, full-length human TIGIT on CHO-K1 cells …; assay: FACS, high expression strain
Description: as §1

[7] = biological target: T5, full-length human TIGIT on CHO-K1 cells …; assay: FACS, medium expression strain
Description: as §1

[8] = biological target: T2, human TIGIT ECD-mFc (fusion protein of …); assay: FACS, competition: hTIGIT ECD-mFc to CHO-K1 CD155
Description: The collected CHO-K1 CD155 cells were washed once with PBS (Hyclone, CAT #SH30256) and resuspended to 2×10⁵/40 μL with 1% BSA-PBS. The tested antibodies were diluted to 600 nM with 1% BSA-PBS (diluted by 2.5-fold serial dilution for 12 concentration points). The TIGIT ECD-mFc was diluted with 1% BSA-PBS to 6 μg/mL. The 40 μL cells were then mixed with 40 μL diluted antibodies and 40 μL diluted TIGIT ECD-mFc, and then incubated at 4° C. for 60 minutes. […] The cell samples were washed twice with PBS, resuspended to 100 μL/well with 1% BSA-PBS and then analyzed by flow cytometry (BD, Canto II).

[9] = biological target: T5, full-length human TIGIT on CHO-K1 cells …; assay: FACS, competition: Bio-CD155-His to CHO-K1 human TIGIT
Description: The collected cells were washed once with PBS (Hyclone, CAT #SH30256), resuspended to 2×10⁵/40 μL with 1% BSA-PBS. The antibodies were diluted to 210 nM with 1% BSA-PBS (diluted by 3-fold serial dilution for 12 concentration points). […] The 40 μL cells were then mixed with 40 μL diluted antibodies and 40 μL diluted Bio-CD155-His, and then incubated at 4° C. for 60 minutes. The cells were washed twice with PBS, resuspended with APC labeled streptavidin (dilution ratio 1:1700, Biolegend, 405243), 100 μL/well, and incubated at 4° C. for 40 minutes. The cell samples were washed twice with PBS, resuspended with 1% BSA-PBS, 100 μL/well and then analyzed by flow cytometry (BD, Canto II). […] [0300] (d) The effect of anti-TIGIT chimeric antibodies blocking the interaction between TIGIT ECD-mFc and CHO-K1 CD155 detected by FACS

T1 sequence (chain, as listed by the source limits assumed): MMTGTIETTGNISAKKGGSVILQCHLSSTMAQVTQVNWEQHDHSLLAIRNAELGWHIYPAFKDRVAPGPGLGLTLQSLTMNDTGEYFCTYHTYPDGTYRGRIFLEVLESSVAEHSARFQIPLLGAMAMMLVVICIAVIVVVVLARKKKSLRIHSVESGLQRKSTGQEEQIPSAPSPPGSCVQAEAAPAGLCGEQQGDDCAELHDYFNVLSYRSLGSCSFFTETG
T3 sequence (chain, as listed by the source limits assumed): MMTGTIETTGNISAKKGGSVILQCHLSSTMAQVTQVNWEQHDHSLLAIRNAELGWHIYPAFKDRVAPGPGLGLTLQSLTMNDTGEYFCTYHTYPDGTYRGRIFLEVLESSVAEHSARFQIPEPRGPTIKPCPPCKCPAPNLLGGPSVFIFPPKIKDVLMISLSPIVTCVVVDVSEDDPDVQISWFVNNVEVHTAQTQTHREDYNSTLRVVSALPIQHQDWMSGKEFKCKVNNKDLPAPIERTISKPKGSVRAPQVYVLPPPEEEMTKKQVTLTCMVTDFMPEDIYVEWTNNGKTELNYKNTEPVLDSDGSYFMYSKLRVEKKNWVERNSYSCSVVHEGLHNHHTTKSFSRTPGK

EC50 [1]: 0.0359 nM | EC50 [2]: 0.0145 nM | EC50 [3]: 0.0163 nM | Kd [4]: 0.3 nM | koff [4]: 0.000456 s⁻¹ | kon [4]: 1.52e+06 M⁻¹ s⁻¹ | EC50 [5]: 0.352 nM | EC50 [6]: 0.517 nM | EC50 [7]: 0.394 nM | IC50 [8]: 0.582 nM | IC50 [9]: 0.384 nM
B1: TIGIT-CHI-070 (antibody, V domains shown)
VH: QVQLQQPGTELVKPGASVKLSCRASGYTFTNYYMHWVKQRPGRGLEWIGRIDPDSGGSKYNEKFKSKATLTVDKLSSTAYMQLSSLTSEDSAVYYCAREGHYGFYSDYWGQGTTLTVSS
VL: DIQMTQSPASLSASVGETVTITCRVSENIYSYLAWYQQKQGKSPQLLVYNAKTLAEGVPSRFSGSGSGTQFSLKINSLQPEDFGNYYCQHHYGNPLTFGAGTKLDLK
notes: human-mouse chimeric antibody

EC50 [1]: 0.029 nM | EC50 [2]: 0.0181 nM | EC50 [3]: 0.0165 nM | Kd [4]: 0.0697 nM | koff [4]: 0.000315 s⁻¹ | kon [4]: 4.53e+06 M⁻¹ s⁻¹ | EC50 [5]: 0.218 nM | EC50 [6]: 0.299 nM | EC50 [7]: 0.29 nM | IC50 [8]: 0.368 nM | IC50 [9]: 0.152 nM
B2: TIGIT-CHI-002 (antibody, V domains shown)
VH: EVQLQESGPGLAKPSQTLSLACSVTGYSITSDSWNWIRKFPGNKLEYMGYISYSGNTYYNPSLKSRISITRDTSKNQFYLQLNSVTTEDTATYYCARLDFSNYGGAVDYWGQGTSVTVSS
VL: DIVMTQSHTFMSTSVGDRVSITCKASQNVRTAVAWYQQKPGQSPKLMIYSASYRYTGVPDRFTGSGSGTDFTFTISSVQAEDLAVYYCQQYYTTPWTFGGGAKLEIQ
notes: human-mouse chimeric antibody

EC50 [1]: 0.0731 nM | EC50 [2]: 0.0167 nM | EC50 [3]: 0.0389 nM | Kd [4]: 0.132 nM | koff [4]: 0.00017 s⁻¹ | kon [4]: 1.29e+06 M⁻¹ s⁻¹ | EC50 [5]: 0.329 nM | EC50 [6]: 0.502 nM | EC50 [7]: 0.481 nM | IC50 [8]: 0.572 nM | IC50 [9]: 0.246 nM
B3: TIGIT-CHI-006 (antibody, V domains shown)
VH: B2 VH with L18P, A21T, I29M, S33Y, N56R, L98G, F100Y, V107M, D108Y, Y109D
VL: DIVMTQSHKFMSTSVGDRVSITCRASQGVSTTIAWYQQKPGQSPKLLIYSASYRYTGVPDRFTGSGSGTDFTFTISGVQAEDLAVYYCQQYYSSPFTFGGGTKLEIK
notes: human-mouse chimeric antibody

EC50 [1]: 0.0264 nM | EC50 [2]: 0.0173 nM | EC50 [3]: 0.017 nM | Kd [4]: 0.0536 nM | koff [4]: 0.000192 s⁻¹ | kon [4]: 3.59e+06 M⁻¹ s⁻¹ | EC50 [5]: 0.229 nM | EC50 [6]: 0.342 nM | EC50 [7]: 0.316 nM | IC50 [8]: 0.363 nM | IC50 [9]: 0.158 nM
B4: TIGIT-CHI-005 (antibody, V domains shown)
VH: QVQLQQSGAELVRPGTSVKVSCKASGYAFTNYLIEWVKQRPGQGLEWIGVINPGSGGTNYKEKFKGKATLTADKSSSTAYMQLSSLTSEDSAVYFCARGEYFFFDYWGQGTTLTVSS
VL: DIVMTQSHKFMSTSVGDRVSITCKASQHVSNGVAWYQHKPGQSPKLLIYSASYRYTGVPDRFTGTGSGTDFTFTISSVQAEDLAVYYCQQHYNTPHTFGGGTKLEIK
notes: human-mouse chimeric antibody
